The values that follow come from the supplement of paper PMC12042874.

± gives the uncertainty stated by the source.

The nature of the data set: amyloid nucleation score (Sup35N fusion, yeast selection) (log enrichment); library NNK1; higher = more nucleation; inactive = no reads after selection. Summed up:
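Sup35N fusions to peptides of 20 random codons were expressed in psi-negative yeast, induced 24 hours with 100 μM copper sulfate, and grown 7 days at 30°C on medium lacking adenine and uracil. Input and output plasmid inserts were sequenced by Illumina. The nucleation score is the DiMSum log enrichment of output over input reads, centred on the mode score of non-aggregating sequences. Sequences with under 100 input reads were excluded.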
With LGSNNWVFGYGR, the amyloid nucleation score entry is “inactive”. Next, LGWDDVVY: 0.314 ± 0.85. Regarding LHHRSLFDCESNTAGSPRFV, the amyloid nucleation score is -0.279 ± 0.47. The same measure for LHIVMLVLMASMEQTVTS: -1.11 ± 2.4; for LHLERALLTNRLFRS: 0.077 ± 0.49; for LHVRVCMYADMLSFYGSFAY: 2.68 ± 0.085.

The substance LICQLGEPQFNKFHWICSLD had an amyloid nucleation score of -0.39 ± 1.7. Turning to LIDRHSFVRGRIRVSSVVVC, the amyloid nucleation score entry is “inactive”. Next, LIFLLSQSIVVMQWSGRKKQ: “inactive”; LIFMMDEVMYNGVSCFVRRE: 0.136 ± 0.69; LIGRRGLHYLF: -0.186 ± 1.9.

LIIVRSMSNDGSIVGSQAWP: the amyloid nucleation score turned out to be 8.152 ± 0.073.

Take LIKYFNINYNGCSAVPWGSP: the amyloid nucleation score worked out at 5.981 ± 0.056. Next, LILFWF: -0.5 ± 1.4; LILSSCHERGSGGVFWTDHV: 0.924 ± 0.64; LINFLLVTVCTSWIGISLCV: 0.358 ± 0.39. LINHIS had an amyloid nucleation score of 0.444 ± 0.9.

Consider LISACDRSPSVIPI, for which the amyloid nucleation score was 0.252 ± 0.37. With LISPVQSNTSAMVCELSDPY, the amyloid nucleation score stood at 0.56 ± 0.76. Next, LITLAFVVSCVSYSRGSKRW: 1.31 ± 0.23.

LITLREVTYIFNWTFLNYLR gave an amyloid nucleation score of -0.305 ± 0.43. For LIVNRSKFLT, the amyloid nucleation score came out at 0.625 ± 0.36. The substance LIVVSLGKMKLGYYFKFNVL displayed an amyloid nucleation score of 0.286 ± 0.22. The same measure for LIWSMEALYFMDLLGG: “inactive”. The same measure for LKASWRAGRATVREKGCKLA: 0.505 ± 0.38; for LKMEYHVGRNWSLGKSRAPE: 0.335 ± 0.92. The same measure for LKYANLSMRYPWVKKYCKEN: -0.301 ± 0.51. Substance LKYFYR gave an amyloid nucleation score of 0.44 ± 0.34. The same measure for LLCYMRGYPSCL: 0.512 ± 0.36; for LLDSNHSVLYFIFGLVT: 1.27 ± 0.42; for LLDWGFPG: -1.22 ± 1.6. The same measure for LLFRNYHMGDLEHLFIFYWY: 0.475 ± 0.56; for LLGAR: 0.272 ± 0.79; for LLHGGY: -1.86 ± 2.4. Next, LLLLHLWLALRGLSDCSSHV: 0.626 ± 0.87; LLLRSAAESRVSLDEEARGT: 0.191 ± 0.64. With LLMEFI, the amyloid nucleation score was 1.46 ± 0.84. In turn, LLMNQV had an amyloid nucleation score of 0.715 ± 0.5. The same measure for LLQMWMEWRVFYYHLFVSAS: 0.085 ± 0.55; for LLQSGGLVIRVHCSMFTVGA: -0.889 ± 0.78; for LLRFTCSILLRA: 0.437 ± 0.79.

The substance LLSFAITCDSPVSRSVLFIR had an amyloid nucleation score of -0.53 ± 0.58. Next, LLSTHVMQVLPMNQAKNILK: -0.935 ± 0.29; LLSVF: 0.484 ± 0.74; LLVCSKRSGLVSLLLVIYAF: -0.522 ± 1.4. The same measure for LLVESKAYGWHVMRGQTWTR: -0.045 ± 0.42; for LLVVIQICLM: 2.9 ± 0.14.

LLWTSNIIYMSFAVRNKSVR returned an amyloid nucleation score of 0.59 ± 0.32. For the substance LLYFRVRSMFKGLRNETYMA, the amyloid nucleation score is 0.411 ± 0.27. LMFGRKCMLSLFPVRFHRCH yielded an amyloid nucleation score of 0.378 ± 0.9.

LMFSIFTYNFGKNWSSKSLG: the amyloid nucleation score was 0.303 ± 0.52.

For LMSTVIVESVVIWGMAARVQ, the amyloid nucleation score worked out at 2.62 ± 0.11. LMVGVSRGSGWRCGPLGEGA displayed an amyloid nucleation score of 0.035 ± 0.37. Next, LMVISYRCDATGRRRVSLD: 0.867 ± 0.25; LMWNLTLS: 0.949 ± 0.97; LMWVSRR: 0.13 ± 0.38. The same measure for LMYPSGQSKRWIYRLYMGYR: “inactive”; for LNCWLNRSVYVRLNRQDGKT: 2.5 ± 0.31; for LNHRGGLVDGFMAAGPRKFR: -0.793 ± 1. The same measure for LNHSAIRHTVSGLNPWSWAG: -0.288 ± 1.5; for LNRSGIISITIMTWSFGNAQ: 2.75 ± 0.13; for LNSKILGKSRTCDENSWPFV: -0.27 ± 0.51.

Consider LNSLNVGLVEDKQYILYER, for which the amyloid nucleation score came to 1.68 ± 0.39.

Regarding LNSNPDCKTLFIHAWW, the amyloid nucleation score turned out to be 0.282 ± 1.2. In turn, LNTFWKIRTNMSMGTWS yielded an amyloid nucleation score of 0.79 ± 0.65. In turn, LNVCSRTPWYKSQSFVDRCV displayed an amyloid nucleation score of -1.69 ± 2.4.

On to LNVIVKDRGPCKSSSEIAVD, for which the amyloid nucleation score was -1.35 ± 1.3. Next, LNVTQYVKGSEWKWGSTTSP: 0.176 ± 0.52. LPCHWVHVQGHHWLRLDVMC gave an amyloid nucleation score of 0.2 ± 0.64. Next, LPFMHYYHSGY: -0.814 ± 1.4; LPGMVSL: 0.33 ± 0.42. As for LPLICRSSGLLV, the amyloid nucleation score is -0.405 ± 1.6. In turn, LPYNHTQTVMDFIYFVFWLL had an amyloid nucleation score of 0.698 ± 0.24. LQNSDVFHADLQIISPTFCP had an amyloid nucleation score of -0.826 ± 1.8.

LQYSKGYDRVRDPILHTVN gave an amyloid nucleation score of 0.389 ± 0.37. The same measure for LQYWEVYSSCRMRVGYYSAD: 1.67 ± 0.13; for LRCLANVDSIICNSV: -0.071 ± 0.9; for LRDRCTFG: -0.755 ± 0.5. Substance LREGTFRLRQVTTFRGYRPW yielded an amyloid nucleation score of 0.101 ± 0.37. Consider LREVGQNLVGMSV, for which the amyloid nucleation score entry was “inactive”. The same measure for LRHFCGTFAAVTRKRVYPLS: -0.95 ± 2.7; for LRIARVYVYKIRAWSVVSGK: -1.35 ± 0.63; for LRIERMWVWVSA: 0.556 ± 0.65. The same measure for LRIHGSTLRISLW: 1.64 ± 0.28; for LRILVITYILCT: -0.331 ± 0.42; for LRIVS: -0.11 ± 0.4.

With LRNAMVMSLYN, the amyloid nucleation score was -0.423 ± 0.72. Turning to LRNAVFVDPSCNYYVFILRL, the amyloid nucleation score was determined as 3.72 ± 0.15. The same measure for LRNIGCKY: 1.01 ± 0.64; for LRRLSIANLFIFAFSWRFYW: 1.03 ± 0.52; for LRRLTTVAGIVIAVTSEDDT: 0.595 ± 0.73. The same measure for LRSFIGRRS: 0.272 ± 0.32; for LRSIRVPP: -0.005 ± 0.32; for LRSSVSFGQLSRNPHAGSSH: -1.4 ± 1.4.

Regarding LRSTLPADRRGLICFSHI, the amyloid nucleation score was determined as 0.528 ± 1. On to LRSVPRSRSF, for which the amyloid nucleation score was determined as 0.783 ± 0.41. Next, LRVKIHTIVIQWIANNGARL: 0.39 ± 0.74. The same measure for LRVYGGFLSMSCMRQRDGTV: 0.151 ± 0.39; for LRWFPEAFNGAERESLASNL: -0.102 ± 0.52; for LRYASEGSKFFVWNLTYLNR: -0.147 ± 1.2. The same measure for LSCLYDDCC: 1.05 ± 0.61. LSDFLRPLVLVFLSTLEVAM had an amyloid nucleation score of 0.138 ± 0.35. Next, LSFWLCSWSMWCKSQLGNDR: 2.13 ± 0.13; LSGPLNGEDFHRIFQVDFRW: 0.244 ± 0.79; LSHLRSLYKGCSYRMHSWMY: 1.04 ± 0.58. The same measure for LSHWMPVN: -0.527 ± 0.34; for LSIIVHNCGVLVVSMTLTVI: -0.172 ± 1.6. The same measure for LSLFCVLMY: 2.1 ± 0.27; for LSMRWYTSPFAFGIS: -0.114 ± 0.88. The substance LSPGRYFDSPL displayed an amyloid nucleation score of 0.589 ± 0.77. In turn, LSQMSRCNPACAVVPASEMA had an amyloid nucleation score of 0.376 ± 1.1. LSQNLAPGIVFFAV gave an amyloid nucleation score of -1.02 ± 1.7. Turning to LSQTKSL, the amyloid nucleation score was -0.012 ± 0.77.

In the case of LSSAGYQFMFLSSFLGWEVN, the amyloid nucleation score is -0.492 ± 0.44. The same measure for LSSRFAWCIWGET: 0.956 ± 0.73; for LSSYGYHMRVDHVTNANPSR: 0.159 ± 0.43. Next, LSTDQLVSSLKCR: 0.404 ± 0.41; LSYDEYPGMNASAAIQGLVV: -0.556 ± 1.4; LSYRCVVYSVMIWSDIRALV: 0.655 ± 0.3. Consider LTARSFKCF, for which the amyloid nucleation score result is “inactive”. Next, LTCFVISVGTSSLIIDFWI: -0.647 ± 0.39; LTFMFTTRIA: -0.912 ± 1.1. On to LTFNAMMMMIMLIMSAYIVS, for which the amyloid nucleation score is 1.89 ± 0.46.

Regarding LTGFCHFYGSIFTSYMKSL, the amyloid nucleation score result is “inactive”. The same measure for LTGSRIMCFSMWR: -1.02 ± 0.43; for LTGYTAS: 0.295 ± 0.37; for LTIRQWRFITAVGDLFLWMR: 0.331 ± 0.58. Substance LTLICSSGEC returned an amyloid nucleation score of 2.14 ± 0.17. Next, LTLLA: -0.096 ± 1.7. Next, LTLMGRSMNKYVAGSTTRAL: -0.371 ± 0.29; LTVLACPRYSS: 0.525 ± 0.87. The same measure for LTWHRLSISHTVAYLSTDSI: “inactive”; for LTYCDIVLSMMSLDEKSDYD: “inactive”. With LTYSPWGCWIYMCYGERFWR, the amyloid nucleation score was determined as 7.883 ± 0.062.

Turning to LVCSGKWFVKSARLQ, the amyloid nucleation score was determined as 0.962 ± 0.14. The same measure for LVFTNTLSTIFNNLHCYMWE: 4.49 ± 0.12; for LVFWRLCERHRWLRGFESA: -1.06 ± 1.5; for LVGGCPLTRGRGYGRPRNGG: -1.9 ± 2.7. Next, LVIHCDQTHIKVQRDVPRRW: 2.98 ± 0.15.

For the substance LVILRGLGPDSCYYC, the amyloid nucleation score is -0.248 ± 0.86. With LVIYVVSDDSVGLTNWRIVA, the amyloid nucleation score came to 3.76 ± 0.065. The same measure for LVLAENCR: -0.672 ± 0.68.
